Assay results published in US8030043B2, “β-galactoside-α2,3-sialyltransferase, a gene encoding thereof, and a method for producing thereof” (Japan Tobacco Inc., priority 2005, dated 2011).

B1: FAJ-N1C0 first clone: JT-FAJ-16 sialyltransferase lacking signal peptide region, nucleotides 67 to 1209 of SEQ ID NO: 30 (protein, listed as Vibrio sp.)
chain: MKNIITKRMLIILSSLFTIIGCNNDNSTTTNNNAIEIYVDRATLPTIQQMTKIVSQKTSNKKLISWSRYPITDKSLLKKINAEFFKEQFELTESLKNIILSENIDNLIIHGNTLWSIDVVDIIKEVNLLGKNIPIELHFYDDGSAEYVRIYEFSKLPESEQKYKTSLSKNNIKFSIDGTDSFKNTIENIYGFSQLYPTTYHMLRADIFDTTLKINPLRELLSNNIKQMKWDYFKDFNYKQKDIFYSLTNFNPKEIQEDFNKNSNKNFIFIGSNSATATAEEQINIISEAKKENSSIITNSISDYDLFFKGHPSATFNEQIINAHDMIEINNKIPFEALIMTGILPDAVGGMGSSVFFSIPKEVKNKFVFYKSGTDIENNSLIQVMLKLNLINRDNIKLISDI
modifications: CDS (1)..(1209) /gene=“FAJ16-23ST” /product=“Beta-galactoside- alpha 2,3-sialyltransferase”
B2: ISH467-N2C0 third clone: JT-ISH-467 sialyltransferase lacking signal peptide region, nucleotides 73 to 1230 of SEQ ID NO: 1, no mutation (protein, listed as Photobacterium phosphoreum)
chain: MFVFCKKIFFLIFISLMILGGCNSDSKHNNSDGNITKNKTIEVYVDRATLPTIQQMTQIINENSNNKKLISWSRYPINDETLLESINGSFFKNRPELIKSLDSMILTNEIKKVIINGNTLWAVDVVNIIKSIEALGKKTEIELNFYDDGSAEYVRLYDFSRLPESEQEYKISLSKDNIQSSINGTQPFDNSIENIYGFSQLYPTTYHMLRADIFETNLPLTSLKRVISNNIKQMKWDYFTTFNSQQKNKFYNFTGFNPEKIKEQYKASPHENFIFIGTNSGTATAEQQIDILTEAKKPDSPIITNSIQGLDLFFKGHPSATYNQQIIDAHNMIEIYNKIPFEALIMTDALPDAVGGMGSSVFFSLPNTVENKFIFYKSDTDIENNALIQVMIELNIVNRNDVKLISDLQ
modifications: CDS (1)..(1230) /gene=“467-23ST” /product=“Beta-galactoside- alpha 2,3-sialyltransferase”
B3: ISH224-N1C0 first clone: JT-ISH-224 sialyltransferase lacking signal peptide region, nucleotides 73 to 1230 of SEQ ID NO: 28 (protein, listed as Photobacterium sp.)
chain: MLVFCKKMFFSVFISLMILGGCNSDSNHNNSDGNITKNKTIEVYVDRATLPTIQQMTQIINENSNNKKLISWSRYPINDEELLESINGSFFKNNSELIKSLDSMILTNDIKKVIINGNTLWAADVVNIIKSIEAFGKKTEIELNFYDDGSAEYVRLYDFSKLPESEQEYKISLSKDNILSSINGTQPFENVVENIYGFSQLYPTTYHMLRADIFETNLPLRSLKGVLSNNIKQMKWDYFKTFNSQQKDKFYNFTGFNPDEIMEQYKASPNKNFIFVGTNSGTATAEQQIDILTEAKNPNSPIITKSIQGFDLFFKGHPSATYNKQIIDAHNMIEIYNKIPFEALIMTDALPDAVGGMGSSVFFSLPNTVENKFIFYKSDTDIENNALIQVMIELNIVNRNDVKLISDLQ
modifications: CDS (1)..(1230) /gene=“224-23ST” /product=“Beta-galactoside-alpha-2,3-sialyltransferase”

System: not listed separately
Assay: Optimum pH for enzyme activity
Assay type: biochemical
Conditions: 25° C.; acetate, cacodylate, phosphate, TAPS, CHES, CAPS buffers pH 4.0-11.0
Procedure: (§1) Purified enzymes were prepared to examine the optimum pH and temperature for β-galactoside-α2,3-sialyltransferase produced by the strain JT-ISH-467 as well as recombinant β-galactoside-α2,3-sialyltransferases produced by the third clone of ISH467-N2C0, the first clone of ISH224-N1C0 and the first clone of FAJ-N1C0.
Acetate buffer (pH 4.0, pH 4.5 and pH 5.0), cacodylate buffer (pH 5.0, pH 5.5, pH 6.0, pH 6.5 and pH 7.0), phosphate buffer (pH 7.0, pH 7.5 and pH 8.0), TAPS buffer (pH 8.0, pH 8.5 and pH 9.0), CHES buffer (pH 9.0, pH 9.5 and pH 10.0) and CAPS buffer (pH 10.0, pH 10.5 and pH 11.0) were prepared and used for enzyme activity measurement at 25° C. at various pH values.
As a result, as shown in FIGS. 3-1 and 3-2, the enzyme activity was maximum at pH 5.0 for β-galactoside-α2,3-sialyltransferase produced by the strain JT-ISH-467, at pH 5.5 for the third clone of ISH467-N2C0, at pH 5.0 for the first clone of ISH224-N1C0, and at pH 5.5 for the first clone of FAJ-N1C0. […] It should be noted that enzyme activity at each pH was expressed as relative activity, assuming that the enzyme activity at pH where it reached a maximum was set to 100.

**Q.** With B1 as the molecule, how does the “pH at which the enzyme activity was maximum (optimum pH)” value (shortened to “pH”) read?
**A.** The value was 5.5.

**Q.** With B2 as the molecule, how does the “pH” value read?
**A.** Its value is 5.5.

**Q.** With B3 as the molecule, how does the “pH” value read?
**A.** The value was 5.0.

System: not listed separately
Assay: Optimum temperature for enzyme activity
Assay type: biochemical
Conditions: 5° C. to 45° C. at 5° C. intervals, at the optimum pH of each enzyme
Procedure: as §1
The enzyme activity was measured at an interval of 5° C. starting from 5° C. up to 45° C. and at pH 5.0 for β-galactoside-α2,3-sialyltransferase produced by the strain JT-ISH-467, in cacodylate buffer (pH 5.5) for the third clone of ISH467-N2C0, in cacodylate buffer (pH 5.0) for the first clone of ISH224-N1C0, and in cacodylate buffer (pH 5.5) for the first clone of FAJ-N1C0.
As a result, as shown, in FIGS. 4-1 and 4-2, the enzyme activity was maximum at 25° C. for β-galactoside-α2,3-sialyltransferase produced by the strain JT-ISH-467, at 25° C. for the third clone of ISH467-N2C0, at 30° C. for the first clone of ISH224-N1C0, and at 20° C. for the first clone of FAJ-N1C0. […] It should be noted that enzyme activity at each temperature was expressed as relative activity, assuming at that the enzyme activity at a temperature where it reached a maximum was set to 100.

**Q.** With B1 as the molecule, how does the “Temperature at which the enzyme activity was maximum (optimum temperature)” value (“Temperature” below) read?
**A.** Its value is 20 °C.

**Q.** For B2, which “Temperature” value is on record?
**A.** The value was 25 °C.

**Q.** With B3 as the molecule, how does the “Temperature” value read?
**A.** The value was 30 °C.

System: asialofetuin
Assay: Sialic acid transfer to glycoprotein (asialofetuin), gel filtration and scintillation counting
Assay type: biochemical
Conditions: asialofetuin acceptor; CMP-14C-NeuAc 22.8 nmol (about 19,000 cpm); enzyme 10 mU; 25° C., 2 hours
Text: Cell homogenates prepared from E. coli cells introduced with the third clone of ISH467-N2C0, the first clone of ISH224-N1C0 and the first clone of FAJ-N1C0 were each purified by ion exchange chromatography and hydroxyapatite chromatography to give an electrophoretically single band. The thus purified β-galactoside-α2,3-sialyltransferases were used in the following experiment in order to examine the presence or absence of sialyltransferase activity toward glycoproteins.
As a glycosyl acceptor substrate, asialofetuin was used. Asialofetuin (2 mg) was dissolved in 1 ml of 20 mM Bis-tris buffer (pH 6.0) and used as a glycosyl acceptor substrate solution. As a glycosyl donor substrate, CMP-^14C-NeuAc-containing CMP-NeuAc was used. The glycosyl acceptor substrate solution (40 μl), the glycosyl donor substrate (5 μl, 22.8 nmol (about 19,000 cpm)) and any of the enzyme solutions (5 μl, 10 mU each) were mixed and incubated at 25° C. for 2 hours to cause sialic acid transfer reaction. After completion of the reaction, the reaction solution was gel-filtered by being applied to a Sephadex G-50 Superfine (0.8×18.0 cm) equilibrated with 0.1 M sodium chloride. A glycoprotein-containing eluate fraction (2-4 ml fraction) from gel filtration was collected and measured for its radioactivity using a liquid scintillation counter to quantify sialic acid transferred to the glycosyl acceptor substrate.

**Q.** With B1 as the molecule, how does the “Radioactivity (cpm)” value read?
**A.** The value was 2865 cpm.

**Q.** For B2, which “Radioactivity (cpm)” value is on record?
**A.** Its value is 1729 cpm.

**Q.** With B3 as the molecule, how does the “Radioactivity (cpm)” value read?
**A.** The value was 3301 cpm.

System: not listed separately
Assay: Confirmation of α2,3 sialyltransferase activity of E. coli-expressed enzyme with pyridylaminated lactose, HPLC
Assay type: biochemical
Conditions: pyridylaminated lactose 2.0 μM, CMP-sialic acid 5.7 μM, pH 6.0, 25° C., 6 hours
Procedure: Using the enzyme obtained in Example 2, the enzymatic reaction was carried out using a pyridylaminated sugar chain as a glycosyl acceptor substrate. The pyridylaminated sugar chain used for analysis was pyridylaminated lactose (Galβ1-4Glc-PA, Takara Bio Inc., Japan). The glycosyl acceptor substrate, CMP-NeuAc and the enzyme were dissolved at 2.0 μM, 5.7 μM and 20 mU/ml, respectively, in 25 μl of 20 mM cacodylate buffer (pH 6.0), and then reacted at 25° C. for 3 hours. After the reaction, the reaction solution was treated at 100° C. for 2 minutes to inactivate the enzyme, followed by HPLC to analyze the reaction product.
The HPLC system used was Shimadzu LC10A (Shimadzu Corporation, Japan) and the analytical column used was Takara PALPAK Type R (Takara Bio Inc., Japan). The column which had been equilibrated with 100 mM acetate-triethylamine (pH 5.0) containing 0.15% N-butanol was injected with the reaction solution diluted with Eluent A (100 mM acetate-triethylamine, pH 5.0). For elution of the pyridylaminated sugar chain, Eluent A (100 mM acetate-triethylamine, pH 5.0) and Eluent B (100 mM acetate-triethylamine containing 0.5% n-butanol, pH 5.0) were used to successively elute the pyridylaminated sugar chain with a linear gradient of 30% to 100% Eluent B (0 to 35 minutes) and then 100% Eluent B (35 to 50 minutes). The analysis was performed under the following conditions: flow rate: 1 ml/min, column temperature: 40° C., detection: fluorescence (Ex: 320 nm, Em: 400 nm).
As in the case of Example 3, pyridylaminated lactose (Galβ1-4Glc-PA, PA-Sugar Chain 026, Takara Bio Inc., Japan) was used as a glycosyl acceptor to carry out the enzymatic reaction. After the reaction, the reaction solution was heated at 95° C. for 5 minutes to inactivate the enzyme, followed by HPLC analysis. It should be noted that the enzymatic reaction was accomplished at 25° C. for 6 hours using pyridylaminated lactose and CMP-sialic acid dissolved at 2.0 μM and 5.7 μM, respectively, in 25 μl of 20 mM cacodylate buffer (pH 6.0) (Reaction 1). On the other hand, a control experiment (Reaction 2) was carried out using a reaction solution free from CMP-sialic acid. Further, to clarify the retention time of standards, the crude enzyme solution was inactivated by thermal treatment (95° C., 5 minutes) and tested in the presence of pyridylaminated lactose and pyridylaminated α2,3-sialyllactose (pyridylaminated 3′-sialyllactose) (Neu5Acα2-3Galβ1-4Glc-PA, PA-Sugar Chain 029, Takara Bio Inc., Japan).

**Q.** For B1, which “α2,3 sialyltransferase activity (formation of pyridylaminated α2,3-sialyllactose)” value (“α2,3 sialyltransferase activity” for short) is on record?
**A.** Its value is “a peak of pyridylaminated α2,3-sialyllactose (pyridylaminated 3′-sialyllactose) was detected”.

**Q.** With B2 as the molecule, how does the “α2,3 sialyltransferase activity” value read?
**A.** Its value is “found to have α2,3 sialyltransferase activity”.

**Q.** With B3 as the molecule, how does the “α2,3 sialyltransferase activity” value read?
**A.** The value was “a peak of pyridylaminated α2,3-sialyllactose (pyridylaminated 3′-sialyllactose) was detected”.
